The data set can be described thus: label from the status in PepcDB records.
Regarding “MKRIIILSPFRGLFRSLLYFLLGLIMALISAGYFSQLFSIVGINRDIAIIISITISFLSLFSSPFNLVLTEVKKEAIAIEEDVVFFFGFPIFIPRISRQNMNTLIAVNLGGALIPLGVSLFLMYELQAYIVYFIINIIVVIIVSKLFSRVIRGVGVIMHPIIPSIFSVISSYVLFYKLHILIPLSAYIGSVLGTLIGADLLNLRRIINEARPQVISIGGMGTFDGIFVSGIISVFISELLVII”, the protein production entry was “failed”.
Turning to “MRYGFMKVAAAVPFVKVADCEYNIERIDRMVHEADAKGVEIMTFPELSITGYSCGDLFFQPFLQERANEALCRLVEQTANTTVMVIVGMPLRVEEKLFNSAVVFQQGKILGAIPKTYLPNYREFQEARWFSPAHTLQYSTISIGQHSVPIGRNLIFKCGTVGVGIEICEDMWTPFTPGTRLCLYGAEVIFNLSSSNENAGKHSYLRSLISGLSSQGICAYVYASSGYGESSTDIVFTGKAFIAEAGEIVEEMERFRYEERMIISDIDVSRIQTERLINSSFKA”, the protein production result is “failed”.
“MACIHIESSHPPAWKTHSVQENKPANADDISNTTLPEHHDGGDGGIQETWAAIGDSGGRGGGYFAGESRKKLEKKKSQVLLEGYALDDQDDLTRAKSLTDDDLEELKGCLDLGFGFSYDEIPELCNTLPALELCYSMSQKFLDDKQQNHHKSQEEDDSSPPPTTTAPIANWKISSPAELESIFIFEPEKDRLCKNEVSAIVR”: the protein production entry is listed as “failed”.
“MRIHRLDIEAFGPFATPQHIDFDHLSAQGLFLLNGATGAGKTSILDAICFALYGSVPGARQEGKRLRSDHAAPGAEPRVVCEFSARGRRFEVTRSPAWDRPSARGRNGFTTQQAKTLLRERVAGSWEEKSSRNDEVGAELSDVLGMDREQFTRVVMLPQGDFAAFLRSKANDRLELLQKLFGTQRFEAVERQLVHQAAEAARAVQENASELKLLLDRVASEQDQLGLPAADTSAAGTEPGQEPEAWLAGVEAEVEAEWKRRQNEAAEAESLSSRLMEHFQEAQEKSQRHGRLGAAMQRRVLLELAAPRALENKEMLGKHRRAAVLSGQLEAVDSAARKLHTASARAAGLREKLDAAGLDAAKPTIALETVKASCAVLEARLPEEQRLEGITVRLAARRGELAEHLSAAEAAATVVDQLREEVSAVELEIQPLEPLADQLAEREREATAAAELVGIVARHATAASELDVITGKHLHARSASQDLRQKWLDVRELRLANAAGELAAALESGKPCAVCGSEEHPNPAQAVRTALSLAQEEEEARERFEASERALGLLAEQVSSAAQVLAGLVAQGGSADAAAAESTLADARAAALAARTAEASLEKLRVRHEALIKRIVLAQEEHDASVGAAAQASAAVHVLQEQCVALETDLAGLRGDFSSLRDRLEALEAERGLLQAAVDADRELERAEQARQDAAASLDKALSESGFASADDARREILSPADVVGLEKDLADFDAESSRLDELFGSEDLVLAAKEASIGEHPLGEAELAESKLHAANAADDARAKALSAGLAGKSAAAVARFRTEYQSLAQAGREPRNRAQMLAELADTVRGSGDNSYRMSLNAYVLAARLEQVATAASERLVAMSDGRYTLQHTDAKAARGAKSGLGLEVVDEWTGQRRDTSTLSGGESFMASLSLALGLADVVQQEAGGVDIETLFVDEGFGSLDDQALEQVMDALEGLRDGGRVVGLVSHVGEMKQRITNQLQVVKGRHGSSVRIAEAGPV”: the protein production entry was “failed”.
On to “MITVSIVSHGQSTLVEQLLADLVRLDMSMVTEVLVTLNIPEDISSKPGDYPYPVRILRNTAARGFGANHNAAFRQAEGEWFCVMNPDIRLINNPFPILIEEGAYDSAGVIAPMVVTPSGMIEDSVRCFPVLTSLAAKLFGHGDGRYLFAAGDEAFAADWVAGMFMLFRTEDFRAVGGFDEGFFLYYEDVDICARLWKSGRSVLACPKASVIHDARRSSRRNLRYMKWHALSLIRYFWKHWGRLPQTPEQLEHHHHHH”, for which the protein production result was “not failed”.
Consider “EDYEKVPLPNSVFVNTTESCEVERLFKATSPRGEPQDGLYCIRNSSTKSGKVLVVWDETSNKVRNYRIFEKDSKFYLEGEVLFVSVGSMVEHYHTHVLPSHQSLLLRHPYGYT”, for which the protein production entry is reported as “not failed”.
With “MSSLTARWHRSIQEIPEQHWQALVSDHAIPFYRWSWLEALESSGSIIPEQGWQPLHLALWRGDVPIAVAPLYLKGHSYGEFVFDQTFARLAGDLGLRYYPKLLGMSPVSPVLGYRFHVLPGEDEAELTAVLLRAIDAFCEHNSILSCNFLYVDPQWRPLAEAAGCATWLNQQSLWSRGDDQSFDDYLNGFNANQRRNIKRERKAVAKAGLTVTPLTGEQLDLELFQIMHGFYEQHCARWGPWGSKYLEQGFFEALAGLHREQVVLFSAHRGDPREPVAMSMCVRDDHHLWGRYWGSEEEIDCLHFEVCYYAPIEWAISQGIDSFDPGAGGSHKRRRGFVARPHASLHRWYQPQMDGLIRAWLPKVNGLMLEEIEAINAELPFKADAPSLSL”, the protein production entry is reported as “failed”.
Take “MPIQRREFIAAIGTGALATTAGCAQSGEGSGQTEAETEAESGGGGQPGVAGETLTLTTTTSTYDTGLLDEIHPDFEDMYGVSVDAVAQGTGAALESARNGDSDIVMVHARGLEDDFMRNGYGINRRDLMFNDFVIVGPEDDPAGIQGMGSATEALTTIAESESQFVSRGDNSGTHTKELNLWEAAGTEPGGNWYQETGTGMGEALNIANQQGAYTLSDRGTYISQRSEIDLVILVQGPIEDGPEILANPYGIMAVNPGVHDNANYDLAMAYIGWITSPGTQDAISNYQVNGEQLFFPEAVSEDPNFQQYVPEGWSSDAGE”: the protein production entry is recorded as “failed”.
For the sequence “MTETRIKQLLGQMSLEEKVSILSGEDFWSVAAVERLGIGKLRVSDGPNGARGGGSLVGGVKSASFPVGIAIGSTWNVELVREIGAALADEVKSKGAHMLLAPTVNIHRSVTNGRNFECYSEDPILSAELAVSYITGLQEQGIGATIKHFVGNESEIERTTISSEVDERALREIYLIPFEWAVRKAHTWGIMSSYNRLNGTFTSEHDWLLGHVLRDEWHYDGIVMSDWFGSHSTAETVNAGLDLEMPGPTRDRGQKLVDAVNAGEVSLETLDRRVLAMLRLMERVGSLDDHRPHVEKAEDRPEHRALIRRAGAEAAVLLKNDGVLPLEGSGKIAVIGPNAKTAQIMGGGSAQLNAHYRISPWQGLVAALGEERLTYAKGCTNDRFEPLLRGVLDVDYFDNLTLSGEPVHRGTIEDAQTFWIGQVAEGKVDALHFSARVRGRFTPEASGEHNVGIYAAGFAKVYIDGKLVADAWTNWTKGRTFFEEGCDEVVGTITLEAGHAYDVTIEFCTKDFATLGLAAFACGIGHPLGDDAIAAAVEAARTAETALLFIGRNGEWDTEGSDLPAIVLPGRQNELVEAVAAVNPRTVVVLQSGGPVEMPWAGQVAAVVSAWYPGQEAGNAIADVLTGLAEPGGRLPQTFPVRWADNPAHSQDREVYPGLEGKVRYEESIFVGYRHYDKLGLTPLYPFGFGLGYTSFALSDLSVDASNFETEGTVSVTLNVTNTGDRVGSTVVQLYVSDTLSSAPRPSKELKAFAKVKLEAGASRGVTLSLDARAFAFFDAGSKSWLVEPGDFILRVGQSSADLPLTARITRTGAMHLPL”, the protein production entry was “failed”.
“DLSSVIKASQTLASEIKLEKLLSTLMELVIENAGAKKCVLVLLKNERLLIEAIAKINQVPISTILVSIPIAESDEIPISLINYVSHTSQTLVIDDATTEDLFISDPYIQQKEPKSLLCTPIIKQGKLMGILYLENHLTTGAFTSDRLQVINLLMAQAAISLENAQLYGQLAEYSQNLELKVEQRT”: the protein production entry is given as “failed”.
Consider “MATSRTQRDVWVYVGIGAMVSALVLFSLVPLVMGLWQPRPAADGVVNGGTPLESQALGYQLVLEREPDNVNALQGLLEIRLQQKNLAAAIAPLERLGQIRTDQVQYRILLAQLKTQLEDNAGAAKVYREILTQSPHNIQALKGLSGLYAQQERPAEAVAIVQNAITQAIKAQTGAPGTVPPDQLTSLQLLLGEIYLSQNRPDQAIAIYEAASKVNGNDFRPVLAQAQVMAQTGKVKEADPFFQQAIMLAPVQYKDPIKNIALQVTNQALANQNGAPETSIPSPAPILKSE”, for which the protein production entry is given as “failed”.
With “MSSPSRTVTLPDIMCPKCIKCGSERTHHSRVRPSERTLSMLFLRPIRCRQCKERFWVKNSNAFLALGGVLFIGALLITTVWLIIEHNMADPYAGSAPEIGTEDPADSVARGTSKSQNGQEALSAPAPGTRGTHDVTQSPGSIPSSAPARNPLEDHRFTVRLYQEAANNGDADSQYKLGLLYLTGNGALQDFAEAAKWLQLAAEQGYGPAQYELGLIYRNGYGLPTDHVQSYVWLNLAAAAGVQQAMGARDEVMRALSSKQLAQAQKISREWLAARTGPESGKEADRVESAHPRRK”, the protein production entry is on record as “failed”.

These data come from a protein production outcome set (Wang et al. 2014).
